# Reference: paper PMC10183829, “Shuffled ATG8 interacting motifs form an ancestral bridge between UFMylation and autophagy” (The EMBO Journal, 2023)
# No end group written: not given here. TAMRA = 5(6)-carboxytetramethylrhodamine
# T1: mCh-HsC53 (human, UniProt Q96JB5 1-506)
# T1 construct: also called mCherry-tagged human C53; not shown: mCherry, N-terminal, kept
# T1 sequence (looked up): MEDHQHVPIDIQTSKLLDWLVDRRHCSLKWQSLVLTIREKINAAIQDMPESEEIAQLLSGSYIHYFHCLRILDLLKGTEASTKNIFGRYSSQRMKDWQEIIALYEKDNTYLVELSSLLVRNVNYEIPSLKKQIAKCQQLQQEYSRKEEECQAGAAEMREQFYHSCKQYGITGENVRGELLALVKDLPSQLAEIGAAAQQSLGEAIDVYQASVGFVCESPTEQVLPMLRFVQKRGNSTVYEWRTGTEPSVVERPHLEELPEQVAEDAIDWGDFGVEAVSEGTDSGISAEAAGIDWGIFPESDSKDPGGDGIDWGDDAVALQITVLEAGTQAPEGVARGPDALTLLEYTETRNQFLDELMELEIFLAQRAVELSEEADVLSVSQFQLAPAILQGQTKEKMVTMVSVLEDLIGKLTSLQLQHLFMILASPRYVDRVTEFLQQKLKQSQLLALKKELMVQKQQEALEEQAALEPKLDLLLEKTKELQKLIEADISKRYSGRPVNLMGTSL
# T2: ATG8A (purified) (Arabidopsis thaliana, UniProt Q8LEM4 1-117)
# T2 construct: ATG8A, Arabidopsis thaliana; 3C site after the His6 tag; 15N-labelled or unlabelled in NMR; also called HIS6-3C-ATG8A; source: E. coli Rosetta2 (DE3) pLysS, purified (HisTrap, ion exchange, SEC)
# T2 sequence (looked up): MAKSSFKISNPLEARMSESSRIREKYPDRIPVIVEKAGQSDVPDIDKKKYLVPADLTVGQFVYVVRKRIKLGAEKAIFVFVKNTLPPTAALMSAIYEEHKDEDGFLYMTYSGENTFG
# B1: GABARAP (purified) (natural protein, human)
# chain: FVYKEEHPFEKRRSEGEKIRKKYPDRVPVIVEKAPKARIGDLDKKKYLVPSDLTVGQFYFLIRKRIHLRAEDALFFFVNNVIPPTSATMGQLYQEHHEEDFFLYIAYSDESVYG
# notes: GABARAP, Homo sapiens; 15N-labelled in the NMR titration; also called HIS6-3C-GABARAP; HIS6-GABARAP; source: E. coli Rosetta2 (DE3) pLysS, purified (HisTrap, ion exchange, SEC)
# B2: HsC53^cAIM (purified, ITC) (natural protein)
# chain: MEDHQHVPIDIQTSKLLDWLVDRRHCSLKWQSLVLTIREKINAAIQDMPESEEIAQLLSGSYIHYFHCLRILDLLKGTEASTKNIFGRYSSQRMKDWQEIIALYEKDNTYLVELSSLLVRNVNYEIPSLKKQIAKCQQLQQEYSRKEEECQAGAAEMREQFYHSCKQYGITGENVRGELLALVKDLPSQLAEIGAAAQQSLGEAIDVYQASVGFVCESPTEQVLPMLRFVQKRGNSTVYEWRTGTEPSVVERPHLEELPEQVAEDAWDGIDFGVEAVSEGTDSGISAEAAGWDGIIFPESDSKDPGGDGWDGIDDAVALQITVLEAGTQAPEGVARGPDALTLLEYTETRNQFLDELMELEIFLAQRAVELSEEADVLSVSQFQLAPAILQGQTKEKMVTMVSVLEDLIGKLTSLQLQHLFMILASPRYVDRVTEFLQQKLKQSQLLALKKELMVQKQQEALEEQAALEPKLDLLLEKTKELQKLIEADISKRYSGRPVNLMGTSL
# notes: source: E. coli Rosetta2 (DE3) pLysS, purified
# B3: GST-ATG8A (natural protein)
# chain: MAKSSFKISNPLEARMSESSRIREKYPDRIPVIVEKAGQSDVPDIDKKKYLVPADLTVGQFVYVVRKRIKLGAEKAIFVFVKNTLPPTAALMSAIYEEHKDEDGFLYMTYSGENTFG
# notes: also called Arabidopsis ATG8A; not shown: GST, N-terminal, kept
# B4: GST-GABARAP (natural protein, human, UniProt O95166 1-117, looked up)
# chain: MKFVYKEEHPFEKRRSEGEKIRKKYPDRVPVIVEKAPKARIGDLDKKKYLVPSDLTVGQFYFLIRKRIHLRAEDALFFFVNNVIPPTSATMGQLYQEHHEEDFFLYIAYSDESVYGL
# notes: also called human ATG8 isoform GABARAP; human ATG8; not shown: GST, N-terminal, kept
# B5: AtUBA5 LIR peptide (peptide)
# peptide: GPLHDDNEWNISVVDD
# notes: LIR/UFIM peptide of UBA5; also called AtUBA5 LIR/UFIM peptide; UBA5 LIR/UFIM; source: synthetic peptide (synthetized in house)
# Legend:
# Conditions in all cases: both partners purified
# [1] = target: B2; assay: ITC
# [2] = target: B1; assay: ITC
# [3] = target: cAIM wt peptide; assay: microscopy-based on-bead protein-protein interaction assay
# [4] = target: T1, mCh-HsC53; assay: as above
# [5] = target: T3, HsUFM1 (purified) (human, UniProt P61960 1-85); assay: native MS; HsUFM1 (5 μM) with peptide (25 μM); ammonium acetate, nanoelectrospray, Synapt G2Si
# T3 construct: UFM1, Homo sapiens; 15N-labelled in the NMR titration; also called human UFM1; source: E. coli Rosetta2 (DE3) pLysS, purified (HisTrap, ion exchange, SEC)
# T3 sequence (P61960 whole entry): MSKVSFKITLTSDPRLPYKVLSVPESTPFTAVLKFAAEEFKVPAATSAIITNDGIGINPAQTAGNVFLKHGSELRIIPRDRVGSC
# [6] = target: T2, ATG8A (purified); assay: fluorescence polarisation; fluorescence anisotropy; ATG8A or AtUFM1 (250 nM-320 μM) added to 50 nM TAMRA-labeled peptide, 10 min at 4°C
# [7] = target: T4, AtUFM1 (purified) (Arabidopsis thaliana); assay: as above
# T4 construct: UFM1, Arabidopsis thaliana; 15N-labelled or unlabelled in NMR; also called HIS6-3C-AtUFM1; HIS6-AtUFM1; source: E. coli Rosetta2 (DE3) pLysS, purified (HisTrap, ion exchange, SEC)
binder,measurement,setting,value
B1,Kd,[1],11.2 µM
B2,fold increase in affinity against the C53 wild type,[2],1.8 fold
B3,binding result,[3],binds
B4,binding result,[4],binds
B5,stoichiometry N,[5],1
"{TAMRA}-AADSIDWDITVETPEIDWDVSMVEEV [sAIM1,2 peptide (AtC53 IDR-derived peptide that covers both sAIM1 and sAIM2)]",Kd,[6],26.5 µM
same,Kd,[7],148 µM
